{"source": "paper PMC6368585", "about": "“Chaperone activation and client binding of a 2-cysteine peroxiredoxin” (Nature Communications, 2019)", "molecules": {"B1": {"name": "reduced, decameric Leishmania infantum mitochondrial 2-Cys peroxiredoxin mTXNPx (mTXNPxred) (enzyme)", "chain": "GSHMNLDYQMYRTATVREAAPQFSGQAVVNGAIKDINMNDYKGKYIVLFFYPMDFTFVCPTEIIAFSDRHADFEKLNTQVVAVSCDSVYSHLAWVNTPRKKGGLGEMHIPVLADKSMEIARDYGVLIEESGIALRGLFIIDKKGILRHSTINDLPVGRNVDEALRVLEAFQYADENGDAIPCGWKPGQPTLDTTKAGEFFEKNM", "notes": "Reduced form, decamer of five dimers; also called Prx1m; wt mTXNPx; source: E. coli BL21(DE3), purified; His tag removed with thrombin; reduced with 5 mM DTT; not shown: His6, N-terminal, cleaved; copies: 10"}}, "key": {"[1]": {"molecular_target": "luciferase (thermally unfolded model client) [luciferase: P08659]", "sequence (P08659 whole entry)": "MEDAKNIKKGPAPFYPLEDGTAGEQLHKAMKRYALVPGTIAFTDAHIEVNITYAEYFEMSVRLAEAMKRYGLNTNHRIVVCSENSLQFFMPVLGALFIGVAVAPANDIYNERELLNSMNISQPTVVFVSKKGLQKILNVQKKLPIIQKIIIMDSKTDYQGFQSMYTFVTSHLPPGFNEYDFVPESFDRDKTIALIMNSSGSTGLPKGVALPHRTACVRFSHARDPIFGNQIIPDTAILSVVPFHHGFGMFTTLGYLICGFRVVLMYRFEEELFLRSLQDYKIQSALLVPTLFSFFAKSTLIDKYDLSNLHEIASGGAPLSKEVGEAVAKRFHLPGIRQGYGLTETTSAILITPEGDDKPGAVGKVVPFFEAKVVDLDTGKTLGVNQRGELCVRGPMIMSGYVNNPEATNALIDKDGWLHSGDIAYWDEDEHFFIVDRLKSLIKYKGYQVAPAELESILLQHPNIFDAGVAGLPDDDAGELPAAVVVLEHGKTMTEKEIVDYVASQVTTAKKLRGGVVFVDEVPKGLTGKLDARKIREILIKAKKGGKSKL"}, "[2]": {"molecular_target": "the molecule itself", "test": "cross-linking; quantitative cross-linking (qCL) with isotopically light or heavy DSS (0.1 mM), each condition (Red or Ox, 30 °C or 42 °C) cross-linked apart and mixed 1:1; log2(H/L) of inter-protein K122/K123 peptide pairs across the dimer-dimer (A-type) interface; decamer to dimers"}, "[3]": {"molecular_target": "T1, luciferase (thermally unfolded model client) (UniProt P08659 1-550 = luciferase)", "T1 construct": "luciferase, 63 kDa; cross-links were mapped onto the whole-chain model pdb 1LCI; source: bought: Promega", "T1 sequence (P08659 whole entry)": "as above", "test": "AUC; analytical ultracentrifugation of mTXNPxred with luciferase (Supplemental Methods)", "conditions": "both partners purified"}}}
{"molecule": "∆5mTXNPx, N-terminal truncation mutant lacking the first 5 residues of the mature protein (reduced) (from UniProt A0A6L0XFC6 33-226) (enzyme)", "values": [{"measurement": "chaperone activity: suppression of the thermal aggregation of luciferase (0.1 µM, 42 °C, light scattering at 360 nm), different ratios up to a 40-fold molar excess, compared to wt-mTXNPx (% less active than wt-mTXNPx)", "setting": "[1]", "value": "> 70"}]}
{"molecule": "B1", "values": [{"measurement": "log2(H/L) of inter-protein cross-link Pep1-Pep1, heavy Red (42 °C) over light Red (30 °C)", "setting": "[2]", "value": -2.32, "unit": "log2 ratio"}, {"measurement": "log2(H/L) of inter-protein cross-link Pep1-Pep2, heavy Red (30 °C) over light Red (42 °C)", "setting": "[2]", "value": 1.4, "unit": "log2 ratio"}, {"measurement": "log2(H/L) of inter-protein cross-link Pep1-Pep2, heavy Red (42 °C) over light Red (30 °C)", "setting": "[2]", "value": -1.55, "unit": "log2 ratio"}, {"measurement": "stoichiometry N", "setting": "[3]", "value": "1 luciferase per mTXNPx decamer"}]}
